Results: the supplement of paper PMC10724198
± gives the standard deviation of the averaged measurements.

test system: Saccharomyces cerevisiae; experiment: protein stability index of tFT-peptide fusion (C-terminal peptide) (PSI (0-1 scale)); higher = more stable (slower turnover); conditions: genetic background: wild type; temperature: 30 C
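Note: PSI is a weighted mean of sequencing reads over stability bins, variants kept only with over 10 reads, mCherry proximal and sfGFP distal, peptide attached via GGGS linker.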

Sequence	protein stability index
VRSSELFNGVWC	0.736 ± 0.093
VRVCRSVGAGMT	0.649 ± 0.034
VRVCWGCCGVVF	0.51 ± 0.024
VRWIEYDVKGWA	0.71 ± 0.011
VSAPRPPPAPSP	0.786 ± 0.1
VSCGRVGVARLG	0.641 ± 0.016
VSCLFFFVSIPF	0.5176 ± 0.0035
VSEVDVRGKGIR	0.783 ± 0.068
VSFRRFKFKVKM	0.661 ± 0.061
VSGLDSLHPSSN	0.717 ± 0.034
VSGNLITLRCFT	0.59604 ± 0.00021
VSKLTRHLWANQ	0.61 ± 0.094
VSLGRRGDRGLC	0.719 ± 0.031
VSMPIVPWPLLQ	0.54 ± 0.016
VSNTSAWLLWIS	0.629 ± 0.032
VSPLRGSRAPFP	0.744 ± 0.068
VSRDVMYLGLGG	0.721 ± 0.18
VSRGGAVRLSTQ	0.7027 ± 0.0027
VSRGGWLKWDEG	0.66 ± 0.028
VSRITSRFEKKM	0.592 ± 0.0086
VSRRSGVGICHL	0.609 ± 0.13
VSRVWAHFGFCG	0.707 ± 0.02
VSSCSGVLLCVP	0.544 ± 0.016

Sequence	protein stability index
VSSPRLSPRLLY	0.775 ± 0.084
VSSSLPVHLSLS	0.717 ± 0.037
VSSVGILPFRFN	0.72 ± 0.077
VSVIRIVPPEFI	0.672 ± 0.03
VSVLVAFDTLPG	0.711 ± 0.034
VSVVGDVWGYGG	0.753 ± 0.068
VSYFARCLGSLA	0.629 ± 0.0011
VTCGVGQHAAIA	0.731 ± 0.053
VTFRTFFVPTFK	0.662 ± 0.097
VTNGGGMGWYRR	0.652 ± 0.078
VTPLPSLPHHRA	0.604 ± 0.041
VTPVQFMFRLHF	0.646 ± 0.054
VTSSIQNRCTSC	0.706 ± 0.076
VVALTSVRSRDV	0.6759 ± 0.0013
VVALVLVGRHGG	0.597 ± 0.041
VVARLERAGLGG	0.766 ± 0.094
VVCGARGDGRCE	0.6834 ± 0.0068
VVCSTRRPSLGS	0.681 ± 0.03
VVCVGAEVGEGG	0.7197 ± 0.0067
VVEKKKKKKNNK	0.73 ± 0.041
VVGGAWTEAGGG	0.632 ± 0.035
VVHGIGLIYTGG	0.68 ± 0.041
VVHVGVWGLGRG	0.64819 ± 0.00032

Sequence	protein stability index
VVIFYSSESRRR	0.724 ± 0.03
VVISRTPAALES	0.697 ± 0.013
VVLCAALHRTYG	0.638 ± 0.012
VVLGGGVGRGCW	0.691 ± 0.13
VVPYRCQRLGDG	0.686 ± 0.061
VVRARLYVWWLG	0.664 ± 0.13
VVRGPSGAGRAG	0.665 ± 0.052
VVRWRMGLFGGR	0.654 ± 0.013
VVSAIISGLSIK	0.733 ± 0.0088
VVSDGRSYGLLK	0.73703 ± 0.00014
VVSEQLDRGMRF	0.694 ± 0.039
VVVRRSEVGGRV	0.65 ± 0.095
VVWGAWGGWGCW	0.726 ± 0.056
VVWSGWGCGGVR	0.619 ± 0.015
VWAVGRATARER	0.6969 ± 0.0025
VWAWGDGGGAVV	0.728 ± 0.051
VWDGLAVAATCS	0.597 ± 0.085
VWFEAGLGWFFL	0.721 ± 0.047
VWFGAGSYSFLC	0.5683 ± 0.0016
VWGGGLLVGAGW	0.669 ± 0.035
VWRSTVRVSRAG	0.763 ± 0.051
VWSWVDSFCRGG	0.744 ± 0.042
VWVEVDGLLVVV	0.534 ± 0.043

Sequence	protein stability index
VWVQISGRLNWK	0.709 ± 0.06
VWVVGADEDAVR	0.698 ± 0.03
VYFFSSIFRCFV	0.544 ± 0.048
VYFLWPRFVCDA	0.585 ± 0.044
VYLRSMLSLNIR	0.676 ± 0.051
VYPRNLPGSVPL	0.666 ± 0.02
VYPRRLLPSRGL	0.668 ± 0.098
VYQLTKNERVIK	0.643 ± 0.1
VYRRGESRTHGD	0.682 ± 0.018
VYSVDGGKTVLD	0.669 ± 0.028
VYTIHECADMLY	0.712 ± 0.045
VYVLHNVMCSSD	0.632 ± 0.051
VYYDSVVSLSGA	0.661 ± 0.079
WAARPSATGDRC	0.664 ± 0.042
WAAWGGGEAWGV	0.698 ± 0.047
WAFYFPWSSSLM	0.726 ± 0.036
WAGGANGEWGEW	0.8097 ± 0.0021
WARGGRVDDGGG	0.62 ± 0.057
WATPRPCQMVPS	0.567 ± 0.038
WAVLLQGSRDLW	0.788 ± 0.016
WCAGLATAIQLR	0.636 ± 0.053
WCECGVWVGLWG	0.732 ± 0.059
WCGLRVGGGGMW	0.74 ± 0.017

Sequence	protein stability index
WCGNGFVKKGGL	0.655 ± 0.007
WCKLLGGSVFGE	0.671 ± 0.023
WCLRVRASGRGG	0.786 ± 0.3
WCRGGGWPVTGL	0.7 ± 0.042
WCVCGVWVGLWG	0.71 ± 0.076
WCVLLMALFRWW	0.625 ± 0.025
WDLPKTLCSKYT	0.727 ± 0.013
WDQLPVNMVYQC	0.571
WDSLGGCRARLS	0.7 ± 0.013
WFCRFTGGRRLL	0.671 ± 0.044
WFDCGSACFGYL	0.782 ± 0.056
WFGPPAPRKVSP	0.852 ± 0.042
WFGSPRCVGGQL	0.703 ± 0.03
WFQRGKIPIHKV	0.667 ± 0.074
WFRMTFLSPLHD	0.797 ± 0.044
WGGGGGKEAVVR	0.6554 ± 0.0042
WGGGGGRGGMGG	0.693 ± 0.055
WGGGGGVWGHVV	0.603 ± 0.034
WGGSGRVWVKLG	0.696 ± 0.055
WGGSSPHRTEPR	0.666 ± 0.058
WGGWGLRVSCGT	0.681 ± 0.052
WGLGFRLVFWSV	0.5289 ± 0.0022
WGPCCSTLLFFV	0.423 ± 0.12

Sequence	protein stability index
WGRFGYGPAVVG	0.735 ± 0.063
WGRRGGVARGRA	0.787 ± 0.1
WGRRVSPVRDGR	0.671 ± 0.032
WGSISVEGRVAG	0.715 ± 0.015
WGTGGRLGVGHV	0.697 ± 0.056
WGVGGVLEVLLG	0.522 ± 0.022
WGVGRDVVLWGA	0.895 ± 0.14
WGVSARDPVFKE	0.654 ± 0.018
WGVSGAGPHLLL	0.74 ± 0.038
WGWGGGRGGMGG	0.716 ± 0.022
WGWPHQRDGFLG	0.66 ± 0.007
WHWDGVGTLVIW	0.605 ± 0.14
WLCLARGRLGLH	0.583 ± 0.011
WLESHVSRGLTT	0.64 ± 0.021
WLGRGGACGVRW	0.696 ± 0.05
WLGTIVCGRGWW	0.7003 ± 0.006
WLLGLCLFGFHR	0.577 ± 0.013
WLLKGTVTLMMW	0.5687 ± 0.0031
WLPPPPYSPFSL	0.724 ± 0.059
WLREDCLLSRGR	0.7 ± 0.0016
WLRSLLKENLVR	0.5422 ± 0.0016
WLRVLFPSSPGD	0.607 ± 0.04
WLSAGAWGAVIL	0.788 ± 0.034

Sequence	protein stability index
WPLISPFSKHRW	0.696 ± 0.055
WPLVLSYRKESA	0.803 ± 0.22
WQGARLSSREGH	0.694 ± 0.038
WQLKGNGGREAL	0.671 ± 0.034
WQNKKDNGKIRG	0.724 ± 0.11
WRCYCFLGLDEG	0.653 ± 0.029
WRPLIPPSLPPL	0.6977 ± 0.0069
WRQRVWRGGWKG	0.594 ± 0.031
WSGGWAGGMLNE	0.641 ± 0.027
WSIGGKSFVGIA	0.676 ± 0.031
WSISKSTWGPIG	0.673 ± 0.023
WSQGAIDRLDLS	0.641 ± 0.13
WSRRGGWEKYGV	0.676 ± 0.032
WSSSVGIKGAWF	0.707 ± 0.022
WSVGRVGGCGAR	0.704 ± 0.052
WTCMNRRMREED	0.739 ± 0.072
WTNRVPLYALPT	0.657 ± 0.0081
WVGAGGGSGYGR	0.677 ± 0.018
WVGKCLCRGLCD	0.668 ± 0.0096
WVMREIVFGSLY	0.698 ± 0.017
WVNWRWRAVVPG	0.6188 ± 0.0025
WVSSRSSVVARG	0.653 ± 0.043
